Source: patent publication US10363320B2, “Conjugate comprising oxyntomodulin and an immunoglobulin fragment, and use thereof” (HANMI SCIENCE CO., LTD, priority 2011, dated 2019)

What was measured:
[1] = in vivo; cited from earlier work
[2] = target: T1, human GLP-1 receptor (Homo sapiens, UniProt P43220); experiment: cAMP response in CHO cell line expressing human GLP-1 receptor (CHO/GLP-1R); assay type: cell-based; conditions: Table 3, Fc conjugates, GLP-1, glucagon, 37° C. for 1 hour
T1 construct: host or cells: CHO DG44
T1 sequence (P43220 24-463): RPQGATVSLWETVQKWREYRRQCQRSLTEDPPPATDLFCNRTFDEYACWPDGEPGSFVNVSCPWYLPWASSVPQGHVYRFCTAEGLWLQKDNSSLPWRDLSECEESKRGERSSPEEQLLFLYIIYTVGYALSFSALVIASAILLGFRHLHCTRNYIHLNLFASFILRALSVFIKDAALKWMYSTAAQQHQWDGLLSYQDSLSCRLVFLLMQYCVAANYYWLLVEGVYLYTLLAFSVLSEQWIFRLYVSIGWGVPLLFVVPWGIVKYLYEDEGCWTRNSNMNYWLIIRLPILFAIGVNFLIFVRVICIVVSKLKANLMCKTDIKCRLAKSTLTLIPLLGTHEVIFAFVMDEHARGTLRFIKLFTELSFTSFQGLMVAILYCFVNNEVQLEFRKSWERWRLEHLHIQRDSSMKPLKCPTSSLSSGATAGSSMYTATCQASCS
Protocol: The PCR product was cloned into the known animal cell expression vector x0GC/dhfr to prepare a recombinant vector x0GC/GLP1R.
CHO DG44 cell line cultured in DMEM/F12 (10% FBS) medium was transfected with the recombinant vector x0GC/GLP1R using LIPOFECTAMINE® (INVITROGEN®, USA), and cultured in a selection medium containing 1 mg/mL G418 and 10 nM methotraxate.
(§1) The cultured cells were washed with KRB buffer and suspended in 40 ml of KRB buffer containing 1 mM IBMX, and left at room temperature for 5 minutes. […] Then, 20 mL of cell lysis buffer was added for cell lysis, and the cell lysates were applied to a cAMP assay kit (Molecular Device, USA) to measure cAMP concentrations. EC50 values were calculated therefrom, and compared to each other.
(§2) Each of the cultured transformants was washed with KRB buffer and suspended in 40 ml of KRB buffer containing 1 mM IBMX, and left at room temperature for 5 minutes. […] Then, 20 ml of cell lysis buffer was added for cell lysis, and the cell lysates were applied to a cAMP assay kit (Molecular Device, USA) to measure cAMP concentrations using a Victor (PERKIN ELMER®, USA). EC50 values were calculated therefrom, and compared to each other (Table 3).

[3] = target: T2, human glucagon receptor (Homo sapiens, UniProt P47871); experiment: cAMP response in CHO cell line expressing human glucagon receptor (CHO/GCGR); assay type: cell-based; conditions: Table 3, Fc conjugates, GLP-1, glucagon, 37° C. for 1 hour
T2 construct: host or cells: CHO DG44
T2 sequence (P47871 26-477): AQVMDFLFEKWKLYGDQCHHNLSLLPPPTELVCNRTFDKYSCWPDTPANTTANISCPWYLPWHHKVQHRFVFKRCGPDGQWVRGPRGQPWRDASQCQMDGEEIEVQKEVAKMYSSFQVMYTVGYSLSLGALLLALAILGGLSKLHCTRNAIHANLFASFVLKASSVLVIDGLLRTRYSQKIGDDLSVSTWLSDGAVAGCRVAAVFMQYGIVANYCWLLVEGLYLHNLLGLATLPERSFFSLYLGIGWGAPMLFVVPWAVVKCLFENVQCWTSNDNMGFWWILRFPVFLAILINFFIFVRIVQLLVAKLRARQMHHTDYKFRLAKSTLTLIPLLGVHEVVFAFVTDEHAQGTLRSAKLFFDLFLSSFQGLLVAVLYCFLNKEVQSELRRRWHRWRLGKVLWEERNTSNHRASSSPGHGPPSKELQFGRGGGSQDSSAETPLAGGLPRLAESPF
Protocol: The PCR product was cloned into the known animal cell expression vector x0GC/dhfr to prepare a recombinant vector x0GC/GCGR.
CHO DG44 cell line cultured in DMEM/F12 (10% FBS) medium was transfected with the recombinant vector x0GC/GCGR using LIPOFECTAMINE®, and cultured in a selection medium containing 1 mg/mL G418 and 10 nM methotraxate.
as §1, §2

[4] = taken for 1 year; cited from earlier work

Compound	side-effect [1]	EC50 [2]	EC50 [3]	weight loss [4]
CC(C)CC(N(C)C)C1(c2ccc(Cl)cc2)CCC1 (stereo not drawn) [Sibutramine]	cardiovascular side-effects			
SEQ ID NO. 23 - Fc conjugates: conjugate of oxyntomodulin derivative (SEQ ID NO. 23), cysteine 24, MAL-10K-ALD PEG and immunoglobulin Fc (HXQGTFTSDYSKYLDEKRAKEFVCWLMNT; not fully specified; conjugate chemistry not built; chains of the parent or of the whole protein)		5.4 nM	15.8 nM	
CCCCCCCCCCC[C@@H](C[C@@H]1OC(=O)[C@H]1CCCCCC)OC(=O)[C@H](CC(C)C)NC=O [Orlistat]				4 kg
SEQ ID NO. 33 - Fc conjugates: conjugate of oxyntomodulin derivative (SEQ ID NO. 33), cysteine 30, MAL-10K-ALD PEG and immunoglobulin Fc (HXQGTFTSDYAKYLDEKRAKEFVQWLMNTC; conjugate chemistry not built; chains of the parent or of the whole protein)		11.7 nM	85.9 nM	
SEQ ID NO. 34 - Fc conjugates: conjugate of oxyntomodulin derivative (SEQ ID NO. 34), cysteine 30, MAL-10K-ALD PEG and immunoglobulin Fc (YXQGTFTSDYSKYLDEKRAKEFVQWLMNTC; conjugate chemistry not built; chains of the parent or of the whole protein)		168 nM	8 nM	
Cc1c(C(=O)NN2CCCCC2)nn(-c2ccc(Cl)cc2Cl)c1-c1ccc(Cl)cc1 [Rimonabant]	side-effect of central nerve disorder			
